Results: US20180037644A1 (Pfizer, published 2018)
Where two headings read alike, the source gives them in different places.

Key:
Test in all cases: cell-based or functional assay
[1] = biological target: T1, human IL-33 (mm2) (human, UniProt O95760 112-270)
T1 chain: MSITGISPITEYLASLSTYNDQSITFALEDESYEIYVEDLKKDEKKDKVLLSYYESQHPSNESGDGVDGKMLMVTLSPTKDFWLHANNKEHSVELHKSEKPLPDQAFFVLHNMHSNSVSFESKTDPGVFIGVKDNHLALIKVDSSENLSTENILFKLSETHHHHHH

[2] = biological target: T2, cynomolgus monkey IL-33 (cys mut) (cynomolgus monkey)
T2 chain: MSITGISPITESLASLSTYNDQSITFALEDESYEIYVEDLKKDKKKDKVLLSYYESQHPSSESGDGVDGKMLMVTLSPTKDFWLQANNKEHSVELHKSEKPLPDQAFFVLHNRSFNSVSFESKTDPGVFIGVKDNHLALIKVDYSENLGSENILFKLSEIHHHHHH

[3] = biological target: T1, human IL-33 (mm2)
[4] = biological target: T3, human IL-33 WT (R&D) (human, UniProt O95760 112-270)
T3 sequence: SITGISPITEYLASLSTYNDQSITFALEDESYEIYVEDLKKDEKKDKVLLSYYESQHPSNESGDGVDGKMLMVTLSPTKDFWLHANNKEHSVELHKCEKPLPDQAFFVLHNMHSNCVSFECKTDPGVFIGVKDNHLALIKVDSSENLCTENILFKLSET

[5] = biological target: T1, human IL-33 (mm2)
[6] = biological target: T4, wild-type cynomolgus monkey IL-33 (cynomolgus monkey)
T4 chain: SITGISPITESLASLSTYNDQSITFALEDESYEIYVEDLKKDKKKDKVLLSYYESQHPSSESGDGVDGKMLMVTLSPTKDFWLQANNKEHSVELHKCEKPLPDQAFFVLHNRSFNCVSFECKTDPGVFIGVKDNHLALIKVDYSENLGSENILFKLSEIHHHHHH

[7] = biological target: T3, human IL-33 WT (R&D); remark: listed apart in the source
[8] = biological target: T2, cynomolgus monkey IL-33 (cys mut)
[9] = biological target: T1, human IL-33 (mm2)
[10] = biological target: T4, wild-type cynomolgus monkey IL-33
[11] = biological target: T3, human IL-33 WT (R&D); remark: listed apart in the source
[12] = biological target: T2, cynomolgus monkey IL-33 (cys mut)

B1: IL33-68 (antibody, human IgG1, kappa, V domains shown)
VH: EVQLVESGGGLVQPGGSLRLSCAASGFTFSSYWMYWVRQAPGKGLEWVASITPNGGNTYYPDSVKGRFTISRDNAKNSLYLQMNSLRAEDTAVYYCARGHYYYTAYSLGYWGQGTLVTVSS
VL: DIQMTQSPSSLSASVGDRVTITCKASQNINKHLDWYQQKPGKAPKLLIYFTNNLQTGVPSRFSGSGSGTDFTLTISSLQPEDFATYYCFQYNNGWTFGGGTKVEIKR
- IC50, HEK293 ST2 NFkB [1]: 0.046 nM
- IC50, HEK293 ST2 NFkB [2]: 0.062 nM

B2: IL33-136 (antibody, human IgG1, kappa, V domains shown)
VH: EVQLVESGGGLVQPGGSLRLSCAASGFTFSSYWMYWVRQAPGKGLEWVASITPNGGETYYPDSVKGRFTISRDNAKNSLYLQMNSLRAEDTAVYYCARGHYYYTSYSLGYWGQGTLVTVSS
VL: DIQMTQSPSSLSASVGDRVTITCKASQNINKHLDWYQQKPGKAPKLLIYFTNNLQTGVPSRFSGSGSGTDFTLTISSLQPEDFATYYCFQYNQGWTFGGGTKVEIKR
- IC50, whole blood IFNγ [3]: 0.098 nM
- IC50, HEK293 ST2 NFkB WT IL-33 [4]: 0.037 nM

B3: IL33-265 (antibody, human IgG1, kappa, V domains shown)
VH: EVQLVESGGNLEQPGGSLRLSCTASGFTFSRSAMNWVRRAPGKGLEWVSGISGSGGRTYYADSVKGRFTISRDNSKNTLYLQMNSLSAEDTAAYYCAKDSYTTSWYGGMDVWGHGTTVTVSS
VL: DIQMTQSPSSVSASVGDRVTITCRASQGIFSWLAWYQQKPGKAPKLLIYAASSLQSGVPSRFSGSGSGTDFTLTISSLQPEDFAIYYCQQANSVPITFGQGTRLEIKR
- IC50, HEK293 ST2 NFkB [5]: 0.014 nM
- Cynomolgus monkey:human IC50 ratio: wild-type IL-33 [6]: 256
- IC50, HEK293 ST2 NFkB (DTT-pretreated IL-33) [6]: 12.7 nM
- IC50, HEK293 ST2 NFkB (DTT-pretreated IL-33) [7]: 0.05 nM
- Cynomolgus monkey:human IC50 ratio: cysteine mutant IL-33 [8]: 109
- IC50, HEK293 ST2 NFkB [8]: 1.56 nM

B4: IL33-312 (antibody, human IgG1, lambda, V domains shown)
VH: EVQLLESGGGLVQPGGSLRLSCAASGFTFSSYAMSWVRQAPGKGLEWVSGISAIDQSTYYADSVKGRFTISRDNSKNTLYLQMNSLRAEDTAVYYCARQKFMQLWGGGLRYPFGYWGQGTMVTVSS
VL: SYVLTQPPSVSVSPGQTASITCSGEGMGDKYAAWYQQKPGQSPVLVIYRDTKRPSGIPERFSGSNSGNTATLTISGTQAMDEADYYCGVIQDNTGVFGGGTKLTVLG
- IC50, HEK293 ST2 NFkB [9]: 0.003 nM
- Cynomolgus monkey:human IC50 ratio: wild-type IL-33 [10]: 5.4
- IC50, HEK293 ST2 NFkB [10]: 0.043 nM
- IC50, HEK293 ST2 NFkB [11]: 0.008 nM
- Cynomolgus monkey:human IC50 ratio: cysteine mutant IL-33 [12]: 1.1
- IC50, HEK293 ST2 NFkB [12]: 0.003 nM

B5: IL33-313 (antibody, human IgG1, lambda, V domains shown)
VH: EVQLLESGGGLVQPGGSLRLSCAASGFTFSSYAMSWVRQAPGKGLEWVSGIADDFTSTYYADPVKGRFTISRDNSKNTLYLQMNSLRAEDTAVYYCARDLWMMNYAGGLRYPFGYWGQGTMVTVSS
VL: SYVLTQPPSVSVSPGQTASITCSGERMGDKYAAWYQQKPGQSPVLVIYRDTKRPSGIPERFSGSNSGNTATLTISGTQAMDEADYYCGVLKQDTGVFGGGTKLTVLG
- IC50, HEK293 ST2 NFkB [9]: 0.006 nM
- Cynomolgus monkey:human IC50 ratio: wild-type IL-33 [10]: 528
- IC50, HEK293 ST2 NFkB [10]: 14.1 nM
- IC50, HEK293 ST2 NFkB [11]: 0.027 nM
- Cynomolgus monkey:human IC50 ratio: cysteine mutant IL-33 [12]: 206
- IC50, HEK293 ST2 NFkB [12]: 1.2 nM
